# Experimental data reported in patent US7285395B2, “Stearoyl-CoA desaturase 4 gene” (Wisconsin Alumni Research Foundation, priority 2004, dated 2007).
# Experiments:
# ob/ob mice = experiment: monounsaturated fatty acid content of hearts of leptin-treated ob/ob mice by GLC; type: in vivo, mouse; settings: leptin treatment, GLC of total fatty acids
# Protocol: A, SCD activity: Microsomes were prepared from hearts of PBS-treated, ob/ob, ob/ob pair-fed (PF), and leptin-treated (ob/ob-Leptin) mice, and SCD enzyme activity was determined by measuring the incorporation of radioactivity in oleoyl-CoA using [1-^14C]stearoyl-CoA as a substrate. The reaction products were separated by TLC, and the radioactivity was quantitated. Each value represents the mean±S.E. (n=4). B, Levels of monounsaturated fatty acids in the hearts of ob/ob mice: Total fatty acids were extracted from heart of ob/ob mice treated with either leptin or PBS and wild type controls quantitated by GLC as described in the example below. *, p<0.05 versus wt-PBS; #,p<0.05 versus ob/ob-PBS. C, Total RNA was prepared from hearts of PBS or leptin-treated ob/ob mice and used to measure SCD1, SCD2, and SCD4 mRNA levels by quantitative RT-PCR analysis. The fold change relative to that of wild type was calculated after correction for the levels of cyclophilin used as a standard. […]
# (§1) Subcutaneous Leptin Treatment—ob/ob mice were individually caged and allowed to acclimate for a number of days prior to the start of the experiment. […] Body mass and food intake were measured daily. […]
# ob/ob mice have a mutation in the leptin gene and are a model of obesity, insulin resistance, and diabetes. […] To determine which SCD isoform(s) accounted for these effects, we measured RNA levels of mSCD1, mSCD2, and mSCD4. […]
# mSCD1 = experiment: quantitative RT-PCR of mSCD1 mRNA in hearts of leptin-treated ob/ob mice; type: in vivo, mouse; settings: heart of leptin-treated ob/ob mice, 12 days
# Protocol: A, SCD activity: Microsomes were prepared from hearts of PBS-treated, ob/ob, ob/ob pair-fed (PF), and leptin-treated (ob/ob-Leptin) mice, and SCD enzyme activity was determined by measuring the incorporation of radioactivity in oleoyl-CoA using [1-^14C]stearoyl-CoA as a substrate. The reaction products were separated by TLC, and the radioactivity was quantitated. Each value represents the mean±S.E. (n=4). B, Levels of monounsaturated fatty acids in the hearts of ob/ob mice: Total fatty acids were extracted from heart of ob/ob mice treated with either leptin or PBS and wild type controls quantitated by GLC as described in the example below. *, p<0.05 versus wt-PBS; #,p<0.05 versus ob/ob-PBS. C, Total RNA was prepared from hearts of PBS or leptin-treated ob/ob mice and used to measure SCD1, SCD2, and SCD4 mRNA levels by quantitative RT-PCR analysis. The fold change relative to that of wild type was calculated after correction for the levels of cyclophilin used as a standard. Each value represents the mean±S.E. (n=4).
# as §1
molecule,measurement,setting,value
"leptin: recombinant mouse leptin (Amgen, Thousand Oaks, Calif.) (protein, UniProt P41160 22-167, looked up) Leptin: VPIQKVQDDTKTLIKTIVTRINDISHTQSVSAKQRVTGLDFIPGLHPILSLSKMDQTLAVYQQVLTSLPSQNVLQIANDLENLRDLLHLLAFSKSCSLPQTSGLQKPESLDGVLEASLYSTEVVALSRLQGSLQDILQQLDVSPEC",18:1 content of heart,ob/ob mice,reduced to levels comparable with those in wild type mice
same,expression of mSCD1 isoform,mSCD1,unchanged
